{
  "source": "patent US20080279841A1",
  "about": "“Novel Therapeutic Molecular Variants And Uses Thereof” (MEDVET SCIENCE PTY LTD., priority 2000, published 2008)",
  "key": {"[1]": {"target": "wild-type sphingosine kinase (Homo sapiens, UniProt Q9NYA1)", "conditions": "chemical inhibitor hitherto used widely; cited from earlier work"}, "[2]": {"tested_on": "endogenous sphingosine kinase", "test": "Activation of endogenous sphingosine kinase activity by TNFα, IL-1 and PMA in HEK293 cells expressing the variant", "format": "cell-based, human", "conditions": "for effect on increases in sphingosine kinase activity after activating agents: 100 units/ml IL-1 10 min, 100 ng/ml PMA 30 min (FIGS. 3 & 4)", "procedure": "HEK293 cells transfected with either pcDNA3-G82DSK or empty pcDNA3 vector were treated with 1 ng/ml TNFα and 100 units/ml IL-1 for 10 min and 100 ng/ml PMA for 30 min.\nFIG. 4 is a graphical representation of time course of sphingosine kinase activation by TNFα in HEK293 cells expressing G82D SK. HEK293 cells transfected with either pcDNA3-G82DSK or empty pcDNA3 vector were treated with 1 ng/ml TNFα. Cells were harvested at various times over 45 min. of TNFα treatment with the cell lysates assayed for sphingosine kinase activity.\n(§1) Cell Culture and Transfection—Human embryonic kidney cells (HEK293T, ATCC CRL-1573) cells were cultured on Dulbecco's modified Eagle's medium (DMEM; CSL Biosciences, Parkville, Austrlia) containing 10% fetal calf serum, 2 mM glutamine, 0.2% (w/v) sodium bicarbonate, penicillin (1.2 mg/ml), and gentamycin (1.6 mg/ml). Transfections were performed using the calcium phosphate precipitation method (Graham & van der Eb, 1973). Cells were harvested and lysed by sonication (2 watts for 30 s at 4° C.) in lysis buffer containing 50 mM Tris/HCl (pH 7.4), 10% glycerol, 0.05% Triton X-100, 150 mM NaCl, 1 mM dithiothreitol, 2 mM Na3VO4 10 mM NaF, and 1 mM EDTA. Protein concentrations in cell homogenates were determined with either the Coomassie Brillant Blue (Sigma) or Bichinchoninic acid (Pierce) reagents using BSA as standard."}, "ERK": {"tested_on": "ERK", "test": "ERK activation by TNFα in HEK293 cells (Western blot)", "format": "cell-based, human", "conditions": "TNFα (FIG. 9)", "procedure": "Western Blotting—SDS-PAGE was performed on cell lysates according to the method of Laemmli using 12% acrylamide gels. Proteins were blotted to nitrocellulose and the membranes blocked overnight at 4° C. in PBS containing 5% skim milk and 0.1% Triston X-100. Sphingosine kinase expression levels were analysed with the M2 anti-FLAG antibody (Sigma). ERK activation in response to agonists was followed in cells serum-starved for 4 h using anti-ERK1/2 (Zymed, San Francisco, Calif.) and anti-phospho-ERK1/2 (Promega, Madison, Wis.) antibodies. Immunocomplexes were detected after conjugation to either HRP anti-mouse (Pierce) or anti-rabbit (Selinus/AMRAD, Melbourne, Australia) IgG using an enhanced chemiluminescence kit (Amersham)."}, "sphingomyelinase": {"tested_on": "sphingomyelinase", "conditions": "HEK293 cells, TNF (FIG. 8)", "method": "(§5) Neutral sphingomyelinase activity was determined using [choline-methyl-^14C]sphingomyelin as substrate, essentially as previously described (Wiegmann et al., 1994). Briefly, whole cell lysates, prepared as described above, were added to an equal volume of 100 mM Tris/HCl buffer (pH 7.4) containing 0.2% Triton X-100, 10 mM MgCl2 and [choline-methyl-^14C]sphingomyelin (50,000 cpm/assay) and incubated at 37° C. for 60 min. Radioactive phosphorylcholine produced was then extracted with chloroform/methanol (2:1, v/v) and quantified in the aqueous phase by scientillation counting. The measurement of PKC activity in situ was performed as described previously (Xia et al., 1996). Briefly, cells were seeded in 24-well plates and maintained in culture medium until 70-80% confluent. After the indicated treatments, the cells were washed with DMEM and placed in 60 μl of buffered salt solution (137 mM NaCl, 5.4 mM KCl, 0.3 mM Na2HPO4, 0.4 mM KH2PO4, 5.5 mM glucose, and 20 mM HEPES) supplemented with 50 μg/ml digitonin, 10 mM MgCl2, 25 mM β-glycerophosphate, and 10 μM [γ^32P]ATP (5000 cpm/pmol). A PKC-specific peptide substrate ([sequence]) was then added (to 2001) in the presence of 5 mM EGTA and 2.5 mM CaCl2. […] The PKC-dependent phosphorylated peptide substrate bound to the filter was quantified by scintillation counting."}, "NIH 3T3 cells": {"tested_on": "NIH 3T3 cells", "test": "Focus formation (transformation) assay in V12-Ras transfected NIH 3T3 cells", "format": "cell-based", "conditions": "V12-Ras plus G82D-SK transfected NIH 3T3 cells, two weeks (FIG. 11)", "procedure": "(§2) A. NIH 3T3 cells were transfected with V12-Ras, v-Src or V12-Ras plus G82D-SK, SphK activity was measured 48 h after transfection. B. Focus formation assays were performed in V12-Ras, v-Src, SphK, or V12-Ras plus G82D-SK transfected NIH 3T3 cells in the absence or presence of DMS (2.5 μM) over two weeks.\n(§3) For focus formation assay, low passage NIH 3T3 cells were transfected with the V12 mutant H-ras, v-SRC (gifts from Dr. Julian Downward^2), SphK, G82D mutant SphK expression vectors or empty vector using Lipofectamine Plus as described above. Two days later, the transfected cells were split to 6-well plates. After reaching confluence, they were kept for two weeks in DMEM containing 5% calf serum. The foci were visualized and scored after staining with 0.5% crystal violet. For soft agar assay, suspensions of 1×10^4 cells from the stable transfected pools in a growth medium containing 0.33% agar were overlaid onto 0.6% agar gel in the absence or presence of DMS at various concentrations. After 14-days incubation colonies were stained with 0.1 mg/ml MTT and those greater than 0.1 mm in diameter were scored as positive."}, "[3]": {"test": "Sphingosine kinase activity of lysates of HEK293/HEK293T cells transfected with hSK or mutant hSK", "format": "biochemical, human", "conditions": "for sphingosine kinase (catalytic) activity of the variant itself: transfected HEK293 cells (FIG. 2); for Vmax: standardised for the expression levels of the two recombinant proteins", "procedure": "as §1\nas §1, with “Australia)” for “Austrlia)”, “Na3VO4,” for “Na3VO4”, “with” for “with either”, “Brilliant” for “Brillant”, “reagent” for “or Bichinchoninic acid (Pierce) reagents”\n(§4) Kinetic parameters were calculated using a non-linear regression program."}, "protein kinase C": {"tested_on": "protein kinase C", "test": "Protein kinase C activity in situ in HEK293 cells (TNFα or PMA)", "format": "cell-based, human", "conditions": "TNFα or PMA (FIG. 7)", "method": "as §5"}, "[4]": {"tested_on": "overexpressed wild-type sphingosine kinase", "test": "Activation of overexpressed wild-type sphingosine kinase by TNFα in cotransfected HEK293 cells", "format": "cell-based, human", "conditions": "for effect on activation of overexpressed wild-type sphingosine kinase: HEK293 cells cotransfected with equal proportions, 1 ng/ml TNFα 10 min (FIG. 5)", "procedure": "HEK293 cells, either transfected with pcDNA3-SK, or cotransfected with equval proportions of pcDNA3-SK and pcDNA3-G82DSK were treated with 1 ng/ml TNFα for 10 min. Cells were then harvested and the SK activity in the cell lysates determined.\nas §1"}, "[5]": {"tested_on": "sphingosine kinase stimulated by the oncogene Ras", "test": "Activation of SK by the oncogene Ras in 3T3 fibroblasts", "format": "cell-based", "conditions": "3T3 fibroblasts (FIG. 6)", "procedure": "as §2, §3"}, "[6]": {"test": "Kinetic analysis of hSK with ATP", "format": "biochemical, human", "procedure": "Kinetic analyses were performed with ATP in the concentration range of 0-2 mM and 0-40 mM for hSK^WT and hSK^G82A, respectively. In both cases sphingosine was present at 100 μM.\nas §4"}, "[7]": {"test": "Kinetic analysis of hSK with sphingosine", "format": "biochemical, human", "conditions": "for Km: sphingosine 0-2 mM, ATP 1 mM (hSK^WT), 40 mM (hSK^G82A), non-linear regression", "procedure": "Kinetic analyses were performed with sphingosine in the concentration range of 0-2 mM for both hSK^WT and hSK^G82A. ATP was present at 1 mM and 40 mM for hSK^WT and hSK^G82A, respectively.\nas §4"}},
  "note": "“Also recorded” adds a separate entry of the source. Read-outs that look alike come from different tables or passages of the source.",
  "data": [
    {"molecule": "CCCCCCCCCCCCC/C=C/[C@@H](O)[C@H](CO)N(C)C", "note": "[DMS, N′N-dimethylsphingosine]", "values": [
      {"measurement": "effect on wild-type sphingosine kinase function", "setting": "[1]", "result": "totally eliminates"}
    ]},
    {"molecule": "G82DSK: human sphingosine kinase mutant, substitution of the glycine at position 82 to aspartic acid (protein) MDPAGGPRGVLPRPCRVLVLLNPRGGKGKALQLFRSHVQPLLAEAEISFTLMLTERRNHARELVRSEELGRWDALVVMSGDDLMHEVVNGLMERPDWETAIQKPLCSLPAGSGNALAASLNHYAGYEQVTNEDLLTNCTLLLCRRLLSPMNLLSLHTASGLRLFSVLSLAWGFIADVDLESEKYRRLGEMRFTLGTFLRLAALRTYRGRLAYLPVGRVGSKTPASPVVVQQGPVDAHLVPLEEPVPSHWTVVPDEDFVLVLALLHSHLGSEMFAAPMGRCAAGVMHLFYVRAGVSRAMLLRLFLAMEKGRHMEYECPYLVYVPVVAFRLEPKDGKGVFAVDGELMVSEAVQGQVHPNYFWMVSGCVEPPPSWKPQQMPPPEEPL", "values": [
      {"measurement": "effect on increases in sphingosine kinase activity after activating agents", "setting": "[2]; 1 ng/ml TNFα", "result": "totally suppresses; also recorded: only eliminates activation"},
      {"measurement": "effect on increases in sphingosine kinase activity after activating agents", "setting": "[2]; 1 ng/ml TNFα, listed as G82D SK", "result": "blocks activation"},
      {"measurement": "effect on TNF mediated sphingosine kinase activation over time", "setting": "[2]; 1 ng/ml TNFα, time course over 45 min (FIG. 4)", "result": "inhibits TNF mediated activation at all time point"},
      {"measurement": "effect on endogenous baseline sphingosine kinase activity", "setting": "[2]; no stimulus (FIG. 2)", "result": "does not suppress"},
      {"measurement": "effect on activation of erk by TNF", "setting": "ERK", "result": "inhibits"},
      {"measurement": "effect on activation of erk by TNF", "setting": "ERK; listed as G82D SK", "result": "prevents ERK activation"},
      {"measurement": "effect on activation of sphingomyelinase", "setting": "sphingomyelinase", "result": "does not depress"},
      {"measurement": "effect on activation of sphingomyelinase", "setting": "sphingomyelinase; listed as G82D SK", "result": "does not inhibit activation"},
      {"measurement": "effect on Ras transformation (focus formation)", "setting": "NIH 3T3 cells", "result": "inhibits Ras transformation"},
      {"measurement": "sphingosine kinase (catalytic) activity of the variant itself", "setting": "[3]", "result": "no sphingosine kinase activity"},
      {"measurement": "sphingosine kinase (catalytic) activity of the variant itself", "setting": "[3]; listed as G82D", "result": "catalytically inactive"},
      {"measurement": "effect on activation of protein kinase C", "setting": "protein kinase C", "result": "does not depress"},
      {"measurement": "effect on activation of protein kinase C", "setting": "protein kinase C; listed as G82D SK", "result": "does not effect activation"},
      {"measurement": "effect on activation of overexpressed wild-type sphingosine kinase", "setting": "[4]", "result": "activation is decreased"},
      {"measurement": "effect on activation of overexpressed wild-type sphingosine kinase", "setting": "[4]; listed as G82D SK", "result": "decreases activation"},
      {"measurement": "effect on overexpressed baseline sphingosine kinase levels", "setting": "[4]; HEK293 cells overexpressing sphingosine kinase (FIG. 5)", "result": "not altered"},
      {"measurement": "effect on sphingosine kinase stimulated by the oncogene Ras", "setting": "[5]", "result": "inhibits"},
      {"measurement": "effect on sphingosine kinase stimulated by the oncogene Ras", "setting": "[5]; listed as G82D SK", "result": "inhibiting activation"}
    ]},
    {"molecule": "hSK^G82A: human sphingosine kinase mutant, substitution of the glycine at position 82 to alanine (protein, UniProt Q9NYA1 1-384, looked up, variant G82A) Sphingosine kinase 1: MDPAGGPRGVLPRPCRVLVLLNPRGGKGKALQLFRSHVQPLLAEAEISFTLMLTERRNHARELVRSEELGRWDALVVMSGDALMHEVVNGLMERPDWETAIQKPLCSLPAGSGNALAASLNHYAGYEQVTNEDLLTNCTLLLCRRLLSPMNLLSLHTASGLRLFSVLSLAWGFIADVDLESEKYRRLGEMRFTLGTFLRLAALRTYRGRLAYLPVGRVGSKTPASPVVVQQGPVDAHLVPLEEPVPSHWTVVPDEDFVLVLALLHSHLGSEMFAAPMGRCAAGVMHLFYVRAGVSRAMLLRLFLAMEKGRHMEYECPYLVYVPVVAFRLEPKDGKGVFAVDGELMVSEAVQGQVHPNYFWMVSGCVEPPPSWKPQQMPPPEEPL", "values": [
      {"measurement": "affinity for ATP compared with wildtype hSK", "setting": "[6]; FIG. 13", "result": "considerably lower affinity for ATP"},
      {"measurement": "Vmax", "setting": "[3]", "result": "32 percentage of the maximum velocity calculated for SK^WT"},
      {"measurement": "catalytic activity relative to wildtype hSK", "setting": "[3]; transfected HEK293T cell lysates (FIG. 12)", "result": "~5", "unit": "%"},
      {"measurement": "affinity for sphingosine compared with wildtype hSK", "setting": "[7]; FIG. 14", "result": "remains unaffected"},
      {"measurement": "Km", "setting": "[7]", "result": 15.5, "unit": "µM"}
    ]},
    {"molecule": "hSK^WT: wild-type human sphingosine kinase (SK-1), recombinant, FLAG tagged, expressed in HEK293T cells (protein, UniProt Q9NYA1 1-384, looked up, FLAG tag, wild-type human sphingosine kinase (SK-1), recombinant, FLAG tagged, expressed in HEK293T cells) Sphingosine kinase 1: MDPAGGPRGVLPRPCRVLVLLNPRGGKGKALQLFRSHVQPLLAEAEISFTLMLTERRNHARELVRSEELGRWDALVVMSGDGLMHEVVNGLMERPDWETAIQKPLCSLPAGSGNALAASLNHYAGYEQVTNEDLLTNCTLLLCRRLLSPMNLLSLHTASGLRLFSVLSLAWGFIADVDLESEKYRRLGEMRFTLGTFLRLAALRTYRGRLAYLPVGRVGSKTPASPVVVQQGPVDAHLVPLEEPVPSHWTVVPDEDFVLVLALLHSHLGSEMFAAPMGRCAAGVMHLFYVRAGVSRAMLLRLFLAMEKGRHMEYECPYLVYVPVVAFRLEPKDGKGVFAVDGELMVSEAVQGQVHPNYFWMVSGCVEPPPSWKPQQMPPPEEPL", "values": [
      {"measurement": "Km", "setting": "[6]; sphingosine 100 μM, ATP 0-2 mM (hSK^WT), 0-40 mM (hSK^G82A), non-linear regression", "result": 115, "unit": "µM"},
      {"measurement": "Vmax", "setting": "[3]", "result": "100 percentage of the maximum velocity calculated for SK^WT"},
      {"measurement": "Km", "setting": "[7]", "result": 12.1, "unit": "µM"}
    ]}
  ]
}
